Measurements taken from patent US20160251695.

T1: α-fructosyl-valyl-histidyl-leucyl-threonyl-proryl-glutamic acid
T1 chain: VHLTPE

B1: CFP-T7-H2-62N (protein)
chain: MTSNRADTRVIVVGGGGTIGSSTALHLVRSGYAPANITVLDTFEIPSAQSAGHDLNKIMGINLRNKVDLQMSLEARQMWKEDELFQPFFHNTGRMDCEHTPEGIEDLKKLYQALHDAGAGLEKTHAWLDNEDEILSKMPLLQRDQIQGWKAIWSQDGGWLAAAKAINAIGQFLKERGVKFGFGGAGSFKQPLFDDEGTTCIGVETADGTKYYADKVVLAAGAWSPTLVDLEDQCCSKAWVYAHIQLTPEEAAEYKGVPVVYNGEFGFFFEPDEFGVIKVCDEFPGFSRFKEHQPYGAPSPKRISVPRSHAKHPTDTYPDASEVSIKKAIATFLPRFQDKELFNRALCWCTDTADAALLMCEHPKWKNFILATGDSGHSFKILPNVGKYVVELIEGRLPEEMAYQWRWRPGGDALKSRRAAPPKDLADMPGWKHDPKL
B2: CFP-T7-H2 (protein)
chain: MTSNRADTRVIVVGGGGTIGSSTALHLVRSGYAPANITVLDTFEIPSAQSAGHDLNKIMGIALRNKVDLQMSLEARQMWKEDELFQPFFHNTGRMDCEHTPEGIEDLKKLYQALHDAGAGLEKTHAWLDNEDEILSKMPLLQRDQIQGWKAIWSQDGGWLAAAKAINAIGQFLKERGVKFGFGGAGSFKQPLFDDEGTTCIGVETADGTKYYADKVVLAAGAWSPTLVDLEDQCCSKAWVYAHIQLTPEEAAEYKGVPVVYNGEFGFFFEPDEFGVIKVCDEFPGFSRFKEHQPYGAPSPKRISVPRSHAKHPTDTYPDASEVSIKKAIATFLPRFQDKELFNRALCWCTDTADAALLMCEHPKWKNFILATGDSGHSFKILPNVGKYVVELIEGRLPEEMAYQWRWRPGGDALKSRRAAPPKDLADMPGWKHDPKL
B3: CFP-T7-H13 (protein)
chain: MTSNRADTRVIVVGGGGTIGSSTALHLVRSGYAPANITVLDTFEIPSAQSAGHDLNKIMGIDLRNKVDLQMSLEARQMWKEDELFQPFFHNTGRMDCEHTPEGIEDLKKLYQKLHDAGAGLEKTHAWLDNEDEILSKMPLLQRDQIQGWKAIWSQDGGWLAAAKAINAIGQFLKERGVKFGFGGAGSFKQPLFDDEGTTCIGVETADGTKYYADKVVLAAGAWSPTLVDLEDQCCSKAWVYAHIQLTPEEAAEYKGVPVVYNGEFGFFFEPDEFGVIKVCDEFPGFSRFKEHQPYGAPSPKRISVPRSHAKHPTDTYPDASEVSIKKAIATFLPRFQDKELFNRALCWCTDTADAALLMCEHPKWKNFILATGDSGHSFKILPNVGKYVVELIEGRLPEEMAYQWRWRPGGDALKSRRAAPPKDLADMPGWKHDPKL
B4: CFP-T7-H6 (protein)
chain: MTSNRADTRVIVVGGGGTIGSSTALHLVRSGYAPANITVLDTFEIPSAQSAGHDLNKIMGIDLRNKVDLQMSLEARQMWKEDELFQPFFHNTGRMDCEHTPEGIEDLKKLYQALHDAGAGLEKTHAWLDNEDEILSKMPLLQRDQIQGWKAIWSQDGGWLAAAKAINAIGQFLKERGVKFGFGGAGSFKQPLFDDEGTTCIGVETADGTKYYADKVVLAAGAWSPTLVDLEDQCCSKAWVYAHIQLTPEEAAEYKGVPVVYNGEFGFFFEPDEFGVIKVCDEFPGFSRFKEHQPYGAPSPKRISVPRSHAKHPTDTYPDASEVSIKKAIATFLPRFQDKELFNRALCWCTDTADAALLMCEHPKWKNFILATGDSGHSFKILPNVGKYVVELIEGRLPEEMAYQWRWRPGGDALKSRRAAPPKDLADMPGWKHDPKL
B5: CFP-T7-H2-62E (protein)
chain: MTSNRADTRVIVVGGGGTIGSSTALHLVRSGYAPANITVLDTFEIPSAQSAGHDLNKIMGIELRNKVDLQMSLEARQMWKEDELFQPFFHNTGRMDCEHTPEGIEDLKKLYQALHDAGAGLEKTHAWLDNEDEILSKMPLLQRDQIQGWKAIWSQDGGWLAAAKAINAIGQFLKERGVKFGFGGAGSFKQPLFDDEGTTCIGVETADGTKYYADKVVLAAGAWSPTLVDLEDQCCSKAWVYAHIQLTPEEAAEYKGVPVVYNGEFGFFFEPDEFGVIKVCDEFPGFSRFKEHQPYGAPSPKRISVPRSHAKHPTDTYPDASEVSIKKAIATFLPRFQDKELFNRALCWCTDTADAALLMCEHPKWKNFILATGDSGHSFKILPNVGKYVVELIEGRLPEEMAYQWRWRPGGDALKSRRAAPPKDLADMPGWKHDPKL
B6: CFP-T7-H11 (protein)
chain: MTSNRADTRVIVVGGGGTIGSSTALHLVRSGYAPANITVLDTFEIPSAQSAGHDLNKIMGIDLRNKVDLQMSLEARQMWKEDELFQPFFHNTGRMDCEHTPEGIEKLKKLYQALHDAGAGLEKTHAWLDNEDEILSKMPLLQRDQIQGWKAIWSQDGGWLAAAKAINAIGQFLKERGVKFGFGGAGSFKQPLFDDEGTTCIGVETADGTKYYADKVVLAAGAWSPTLVDLEDQCCSKAWVYAHIQLTPEEAAEYKGVPVVYNGEFGFFFEPDEFGVIKVCDEFPGFSRFKEHQPYGAPSPKRISVPRSHAKHPTDTYPDASEVSIKKAIATFLPRFQDKELFNRALCWCTDTADAALLMCEHPKWKNFILATGDSGHSFKILPNVGKYVVELIEGRLPEEMAYQWRWRPGGDALKSRRAAPPKDLADMPGWKHDPKL
B7: CFP-T7-H9 (protein)
chain: MTSNRADTRVIVVGGGGTIGSSTALHLVRSGYAPANITVLDTFEIPSAQSAGHDLNKIMGIDLHNKVDLQMSLEARQMWKEDELFQPFFHNTGRMDCEHTPEGIEDLKKLYQALHDAGAGLEKTHAWLDNEDEILSKMPLLQRDQIQGWKAIWSQDGGWLAAAKAINAIGQFLKERGVKFGFGGAGSFKQPLFDDEGTTCIGVETADGTKYYADKVVLAAGAWSPTLVDLEDQCCSKAWVYAHIQLTPEEAAEYKGVPVVYNGEFGFFFEPDEFGVIKVCDEFPGFSRFKEHQPYGAPSPKRISVPRSHAKHPTDTYPDASEVSIKKAIATFLPRFQDKELFNRALCWCTDTADAALLMCEHPKWKNFILATGDSGHSFKILPNVGKYVVELIEGRLPEEMAYQWRWRPGGDALKSRRAAPPKDLADMPGWKHDPKL
B8: CFP-T7-H10 (protein)
chain: MTSNRADTRVIVVGGGGTIGSSTALHLVRSGYAPANITVLDTFEIPSAQSAGHDLNKIMGIDLRNKVDLQMSLEARQMWKEDELFQPFFHNTGRMDCEHTPEGIEALKKLYQALHDAGAGLEKTHAWLDNEDEILSKMPLLQRDQIQGWKAIWSQDGGWLAAAKAINAIGQFLKERGVKFGFGGAGSFKQPLFDDEGTTCIGVETADGTKYYADKVVLAAGAWSPTLVDLEDQCCSKAWVYAHIQLTPEEAAEYKGVPVVYNGEFGFFFEPDEFGVIKVCDEFPGFSRFKEHQPYGAPSPKRISVPRSHAKHPTDTYPDASEVSIKKAIATFLPRFQDKELFNRALCWCTDTADAALLMCEHPKWKNFILATGDSGHSFKILPNVGKYVVELIEGRLPEEMAYQWRWRPGGDALKSRRAAPPKDLADMPGWKHDPKL
B9: CFP-T7-H2-62Q (protein)
chain: MTSNRADTRVIVVGGGGTIGSSTALHLVRSGYAPANITVLDTFEIPSAQSAGHDLNKIMGIQLRNKVDLQMSLEARQMWKEDELFQPFFHNTGRMDCEHTPEGIEDLKKLYQALHDAGAGLEKTHAWLDNEDEILSKMPLLQRDQIQGWKAIWSQDGGWLAAAKAINAIGQFLKERGVKFGFGGAGSFKQPLFDDEGTTCIGVETADGTKYYADKVVLAAGAWSPTLVDLEDQCCSKAWVYAHIQLTPEEAAEYKGVPVVYNGEFGFFFEPDEFGVIKVCDEFPGFSRFKEHQPYGAPSPKRISVPRSHAKHPTDTYPDASEVSIKKAIATFLPRFQDKELFNRALCWCTDTADAALLMCEHPKWKNFILATGDSGHSFKILPNVGKYVVELIEGRLPEEMAYQWRWRPGGDALKSRRAAPPKDLADMPGWKHDPKL
B10: CFP-T7-H8 (protein)
chain: MTSNRADTRVIVVGGGGTIGSSTALHLVRSGYAPANITVLDTFEIPSAQSAGHDLNKIMGIDLENKVDLQMSLEARQMWKEDELFQPFFHNTGRMDCEHTPEGIEDLKKLYQALHDAGAGLEKTHAWLDNEDEILSKMPLLQRDQIQGWKAIWSQDGGWLAAAKAINAIGQFLKERGVKFGFGGAGSFKQPLFDDEGTTCIGVETADGTKYYADKVVLAAGAWSPTLVDLEDQCCSKAWVYAHIQLTPEEAAEYKGVPVVYNGEFGFFFEPDEFGVIKVCDEFPGFSRFKEHQPYGAPSPKRISVPRSHAKHPTDTYPDASEVSIKKAIATFLPRFQDKELFNRALCWCTDTADAALLMCEHPKWKNFILATGDSGHSFKILPNVGKYVVELIEGRLPEEMAYQWRWRPGGDALKSRRAAPPKDLADMPGWKHDPKL
B11: CFP-T7-H7 (protein)
chain: MTSNRADTRVIVVGGGGTIGSSTALHLVRSGYAPANITVLDTFEIPSAQSAGHDLNKIMGIDLANKVDLQMSLEARQMWKEDELFQPFFHNTGRMDCEHTPEGIEDLKKLYQALHDAGAGLEKTHAWLDNEDEILSKMPLLQRDQIQGWKAIWSQDGGWLAAAKAINAIGQFLKERGVKFGFGGAGSFKQPLFDDEGTTCIGVETADGTKYYADKVVLAAGAWSPTLVDLEDQCCSKAWVYAHIQLTPEEAAEYKGVPVVYNGEFGFFFEPDEFGVIKVCDEFPGFSRFKEHQPYGAPSPKRISVPRSHAKHPTDTYPDASEVSIKKAIATFLPRFQDKELFNRALCWCTDTADAALLMCEHPKWKNFILATGDSGHSFKILPNVGKYVVELIEGRLPEEMAYQWRWRPGGDALKSRRAAPPKDLADMPGWKHDPKL
B12: CFP-T7-H12 (protein)
chain: MTSNRADTRVIVVGGGGTIGSSTALHLVRSGYAPANITVLDTFEIPSAQSAGHDLNKIMGIDLRNKVDLQMSLEARQMWKEDELFQPFFHNTGRMDCEHTPEGIERLKKLYQALHDAGAGLEKTHAWLDNEDEILSKMPLLQRDQIQGWKAIWSQDGGWLAAAKAINAIGQFLKERGVKFGFGGAGSFKQPLFDDEGTTCIGVETADGTKYYADKVVLAAGAWSPTLVDLEDQCCSKAWVYAHIQLTPEEAAEYKGVPVVYNGEFGFFFEPDEFGVIKVCDEFPGFSRFKEHQPYGAPSPKRISVPRSHAKHPTDTYPDASEVSIKKAIATFLPRFQDKELFNRALCWCTDTADAALLMCEHPKWKNFILATGDSGHSFKILPNVGKYVVELIEGRLPEEMAYQWRWRPGGDALKSRRAAPPKDLADMPGWKHDPKL

Target: T1, α-fructosyl-valyl-histidyl-leucyl-threon …
Details: for αF6P oxidation activity: scale: relative value

Protein	αF6P oxidation activity ratio (relative value (CFP-T7-H2 = 100))	αF6P oxidation activity	αF6P oxidation activity ratio (relative value (CFP-T7-H6 = 100))
B1	120		
B2	100	0.0735	
B3		4.33	207
B4	513	3	100
B5	21		
B6		12.5	951
B7			44
B8			301
B9	11		
B10			2
B11			17
B12		11.6	636
